These results are taken from paper PMC6677171 (Life Science Alliance, 2019).

To fix the notation:
B5: Mis18 (S. pombe) (natural protein, UniProt Q9P802 1-194, looked up)
chain: MSQTETSHSGYIDFKKESQPSVFQCKKCFQIVGDSNAWVISHREYLSFTLSDAVENSVRVEDTFKRSDDGLCVYSELSCTRCNEVIGKVYNSTPIYLDDIRDMYTFSMDKLQAYQLGNKTVNPEGLTRYQVDLEMREDIIKLKSFCLSLYEKFELHDETLRSVKETISSLKKPKIEGKEGKKEKARTYSKRTRK
notes: Mis18, S. pombe, N-terminal YIPPEE domain and C-terminal coiled coil; 'Full-length' is said of the co-expressed complex; source: insect cells; co-expressed with Mis16 and Mis19 and co-purified, or purified alone for the pull-down

Series [1] deals with T1, Mis16 (S. pombe), full length, affinity tag removed (S. pombe, UniProt O94244 1-430).
T1 construct: Mis16, S. pombe, WD40-repeat protein, homologue of human RbAp46/48; codon-optimised gene; Used where the methods or text say the tag was removed (crystals, MALLS of the untagged complex) and, by the general purification protocol, for ITC and AUC; source: insect cells (baculovirus made in Sf21, expressed in Hi5), purified (Strep-Tactin, anion exchange, TEV cleavage, SEC); not shown: double …
Briefly: SEC-MALS; 200 μg of purified Mis16–Mis19C complex on Superose 6 Increase 10/300 coupled to a Wyatt Dawn 8+ MALS system. The following applies: both partners purified.

Series [2] deals with T1, Mis16 (S. pombe), full length, affinity …. Briefly: AUC; sedimentation velocity of the purified co-expressed Mis16–Mis18–Mis19 complex at two concentrations; 150 mM NaCl, 25 mM Tris–HCl pH 8.0, 2 mM TCEP; 50,000 rpm, 4°C; c(s) in SEDFIT. The following applies: both partners purified.
For the series “Mis18 (S. pombe)”, the target named is B5. The experiment in a line: SEC; competition: preformed Mis16–Mis18–Mis19 complex challenged with peptides from the Mis19 N terminus; dissociation seen as separate Mis16–19 and Mis18 peaks. Conditions: both partners purified. (SEC sorts molecules by how far they enter the pores of the column.)
Series [3] deals with T1, Mis16 (S. pombe), full length, affinity …. The experiment in a line: ITC; iTC200, 30°C; 50 mM Tris pH 7.5, 100 mM NaCl, 4% glycerol, 0.5 TCEP; 26 μM protein in the cell, 260 μM peptide injected. Conditions: both partners purified.
Series [4] has the same target. The experiment in a line: ITC; competition: Mis16 preincubated with one peptide (H4α1 or Mis19α2) before titration with the second; apparent KD. Conditions: both partners purified. (In general: Isothermal titration calorimetry measures the heat released or taken up as one component is titrated into another.)
Series [5] deals with the molecule itself. The experiment in a line: AUC; sedimentation velocity of the purified co-expressed Mis16–Mis18–Mis19 complex at two concentrations; 150 mM NaCl, 25 mM Tris–HCl pH 8.0, 2 mM TCEP; 50,000 rpm, 4°C; c(s) in SEDFIT.

The term stoichiometry N denotes a count of units in the complex or per binding partner. Usually Kd stands for the free concentration of one partner at which half of the binding sites on the other are occupied at equilibrium, for simple one-to-one binding. Higher therefore signals lower affinity.

B1: Mis19C (Mis19 residues 52–112) (domain or fragment, S. pombe, UniProt O42995 52-112, looked up)
chain: PRVYETELLVLRFREFGVKDNHNHPINLHSLRSKSLIRAQGKKLDLHNRVFLRRNVRAVKM
notes: holds sites A, B and C; Cannot be expressed and purified without Mis16; also called Mis19^52-C; N-terminal truncation of Mis19; source: insect cells, co-expressed with Mis16
B1: in series [1], the “stoichiometry N” value was determined as 1.

B2: Mis19 (S. pombe), full length (natural protein, UniProt O42995 1-112, looked up)
chain: MDLMPLEKARAIEIAFDNVFHNTKIPDNLQQFDAILKRLERRRFIPTENQKPRVYETELLVLRFREFGVKDNHNHPINLHSLRSKSLIRAQGKKLDLHNRVFLRRNVRAVKM
notes: Mis19 (also known as Eic1), S. pombe; only handled in complex; also called Eic1; source: insect cells (MultiBac), co-expressed with Mis16 and Mis18, co-purified
On to B2, for which the binding result in series [2] is “binds”.

B3: Mis19^1–44 peptide (peptide, UniProt O42995 1-44, looked up)
peptide: MDLMPLEKARAIEIAFDNVFHNTKIPDNLQQFDAILKRLERRRF
notes: Mis19 (Eic1), S. pombe, residues 1–44 (motifs 1 and 2); also called wild-type peptide
Regarding B3, in the series with Mis18 (S. pombe), the binding result is on record as “binds”.
In turn, LHNRVFLRRNVRAVKM (peptide, UniProt O42995 97-112, looked up, also called Mis19 site C peptide) [Mis19α2 peptide (Mis19 residues 97–112)] displayed a Kd in series [3] of 8 nM. Besides, the “apparent KD with Mis16 preincubated with H4α1” value in series [4] is 2500 nM.

B4: Mis19 C-terminal peptide (residues 97–112) F102S (peptide, UniProt O42995 97-112, looked up)
peptide: LHNRVSLRRNVRAVKM
notes: the text ties the value to the F102S (eic1-1) mutant; also called F102 mutant; eic1-1 mutation
On to B4, for which the dissociation constant (Kd) in series [3] was approximately 301 nM.
For the molecule B5, the “stoichiometry N” value in series [5] came out at 4.
